The text below walks through data of the supplement of paper PMC12042874.

± gives the uncertainty stated by the source.

The series can be described thus: amyloid nucleation score (Sup35N fusion, yeast selection) (log enrichment); library NNK1; higher = more nucleation; inactive = no reads after selection. The method, boiled down:
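On medium lacking adenine and uracil, psi-negative yeast expressing peptides of 20 random codons fused to Sup35N were grown 7 days at 30°C after a 24-hour induction with 100 μM copper sulfate. Illumina sequencing of input and output plasmid inserts gave the reads, and sequences under 100 input reads were excluded. The nucleation score is the DiMSum log enrichment of output over input reads, centred on the mode score of non-aggregating sequences.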
Regarding STGPAFDSKGVSTAMSRASF, the amyloid nucleation score entry is “inactive”. Regarding STHCFWVTPGD, the amyloid nucleation score is 0.483 ± 0.83. The value for STILKWRSWLARFLIHMVVV was 0.659 ± 0.47; that for STNACRPVMAQGDHGLSVLR was 0.283 ± 0.6; that for STNFLWTTFGFFHVCLDGAM was -0.218 ± 0.92.

With STNIFSYATLSGFYTVTMIR, the amyloid nucleation score is -0.618 ± 0.49. Under STSILGANFALVWSEVVTVS stands -0.023 ± 0.66. Under STSMDPLYYDYDRLYKIHDK stands 0.484 ± 0.61; under STVNGICSRKLAIRELFSNH, -0.063 ± 0.26; under SVASGVMFRAYCFWWAARKV, 0.27 ± 0.47. The value for SVCGH was -0.237 ± 0.37. In turn, SVCPKINLLNFVWNYYAPTA had an amyloid nucleation score of 6.869 ± 0.064.

In turn, SVDIAINALS showed an amyloid nucleation score of 0.492 ± 0.41. The value for SVDVHYAGRSC was 0.552 ± 0.36; that for SVENQNIKRYT was 1.28 ± 0.33.

SVFQVCFWFKYKRR gave an amyloid nucleation score of 0.201 ± 0.43. The value for SVIAVSLETQVIAWVRYYPK was -0.315 ± 0.55; that for SVLFNAAFFKFQNRF was 0.5 ± 0.6. Under SVLTSMSITCWWKFWVGMSM stands -0.731 ± 1.4. Under SVMDCSFFVLPLCFGCDQKF stands -0.987 ± 0.46; under SVNLSI, -0.196 ± 0.37. For the substance SVNVRVTDYKYRGLFACAFG, the amyloid nucleation score worked out at 0.529 ± 0.58. Under SVPKLKAEVE stands -0.273 ± 0.2; under SVPVQD, 0.633 ± 0.4. Under SVQRAV stands -0.489 ± 1.7; under SVRCCRFGIGGYWP, -1.07 ± 1. Turning to SVRVPWLASFCSKFMSGAYI, the amyloid nucleation score was 0.058 ± 0.41. The value for SVSEGRVGLYNCG was 0.449 ± 0.89; that for SVSGLYQHRSF was 0.184 ± 0.35. Under SVSRYDFEVGVMGHKCCITT stands -0.359 ± 0.42; under SVSYTPVLHCCYCIMKWNPW, 5.19 ± 0.062.

SVTHKTKCRLQFGVEMGQN had an amyloid nucleation score of 1.13 ± 0.8. The value for SVVLMLKYRYMHLTGLWSWS was 0.16 ± 0.46. The value for SVWVENLEFIWRYLPSSVYP was 0.076 ± 0.3; that for SWCNAYPQWWVRSLSMPS was -0.236 ± 0.55.

Take SWCPSQEWFMRYVFSTMCRT: the amyloid nucleation score was found to be 0.302 ± 0.57. The value for SWCSCQV was 1.16 ± 0.6. Under SWLGPRWSFWFWFFIWSSGL stands 1.37 ± 0.74. The value for SWRHMFYGVILGWHICSSGS was 0.925 ± 0.28; that for SWRLK was 3.35 ± 0.073. For SWYGVYPFEIGFESGLESTL, the amyloid nucleation score is -0.429 ± 0.41. SYARTFMDLHNGSRH showed an amyloid nucleation score of -0.013 ± 0.25.

In the case of SYCFFYDDMRTWWFYS, the amyloid nucleation score was 4.4 ± 0.11. Under SYFVIFSGTM stands “inactive”; under SYGHLRAFFEDCSH, -0.145 ± 0.51.

SYNWMVVFVYECI showed an amyloid nucleation score of 0.931 ± 0.57. The value for SYRSEGAMETLIDGRLSDLS was 1.16 ± 0.76; that for SYSFWPMQLTCYFFDVGRCL was 7.434 ± 0.073; that for SYTFSVYLVNWDGF was 2.43 ± 0.26. In the case of SYYDSQYGLYGESVCL, the amyloid nucleation score was 0.738 ± 0.72.

With SYYSGFRMATVSHRIRWRSM, the amyloid nucleation score came out at 1.88 ± 0.7. The value for TAAGSNQSEAFFFTNIISE was 0.078 ± 0.84; that for TAFVILLDHGGCDSRVIYEG was 0.043 ± 0.69.

In turn, TAGLIILINSYASGRLTGDP came in with an amyloid nucleation score of 6.639 ± 0.049. For TAILLNVFKCSIFWVALK, the amyloid nucleation score was -0.691 ± 0.72. Under TAIWTSIIDL stands 0.96 ± 0.42. Under TASLLLTLLFGLPEGLLW stands 0.975 ± 0.3; under TCCVKCGCRVQRMMMCLV, -0.003 ± 0.8; under TCEESEDDGGIMAVPDWM, -0.42 ± 0.57.

Take TCIISTDGCMQAGHFVGDRR: the amyloid nucleation score was -0.69 ± 0.54.

Regarding TCIVSWWYSQDGSWEMCLQR, the amyloid nucleation score entry was “inactive”.

TCKTCLR came in with an amyloid nucleation score of 0.858 ± 1.1. As to TCRESMRYVDNGLAFYSWFY, the amyloid nucleation score was -0.983 ± 0.56. Under TCRKTTMQRRSTHNLVKCDE stands -1.47 ± 2.7.

TCRTEKTNTELMG: the amyloid nucleation score was 1.78 ± 0.6. The value for TCVSYTP was 1.75 ± 0.56. TCYGQAVFLTDCSGRWDIYE: the amyloid nucleation score came out at 3.34 ± 0.16. Consider TCYLSDSLASY, for which the amyloid nucleation score is -0.328 ± 0.54. Substance TDARTR registered an amyloid nucleation score of 1.15 ± 0.36. The value for TDCHALRMWIFAGFWWHNFS was -1.04 ± 0.84. The value for TDQVWMLVSRRFKHFRHIEV was 1.38 ± 0.2; that for TEDAQRGD was -0.302 ± 0.5.

On to TEEKSRVRLFNRRHRGISRG, for which the amyloid nucleation score turned out to be 3.95 ± 0.091. Under TEGFGW stands 1.28 ± 0.35; under TEMDDF, 0.875 ± 0.54. Under TEVWCIQLY stands 0.787 ± 0.46; under TEYVTLLGLSLGFVLASLGA, 0.283 ± 0.43; under TFADNF, -1.28 ± 1.1. Under TFGPTHLGLVKYVEIDYHVA stands -0.725 ± 0.9. TFIYSRECRRTSVWQPFNNR came in with an amyloid nucleation score of -0.704 ± 0.65.

Substance TFMAARQWLGPNYDGGQGLK came in with an amyloid nucleation score of -0.2 ± 1. Under TFVACDLKCPRCAWVGDFVM stands -0.912 ± 0.5; under TGFKI, -0.973 ± 0.97; under TGLCDRLRSLEGAAAVR, 0.514 ± 0.49.

TGLSCCCMNISRNGREMVPR had an amyloid nucleation score of 6.281 ± 0.058. The value for TGLVLVGMSVSCVRYRCSND was 0.009 ± 0.39; that for TGLWNRIEVPVDKTEAKQPV was 0.076 ± 0.42; that for TGNGRDVLHSSALKVPNRR was 0.715 ± 0.43. The value for TGNHSEVTT was 0.233 ± 0.32; that for TGSTR was 0.391 ± 0.22; that for TGVRHATTC was 1.13 ± 0.19. The value for TGYRSTYLNEVTPIRIMPHR was 0.905 ± 0.4; that for TGYVIGWVSWTSWWEMGLYR was -2.43 ± 2.4; that for THARMKFLWFARF was -0.282 ± 0.83. In turn, THGVSWQLVRDAILNGGPKR yielded an amyloid nucleation score of -1.12 ± 1.3. Under THKFLRTRTYFMSVRSVNYW stands 1.19 ± 0.41; under THLLPFAGIGVCDLVRSAMG, 0.668 ± 0.93; under THMGWVMHYSYETTPHARPG, 3.84 ± 0.14. The value for THTRCLLVW was 0.216 ± 0.46. Regarding THYIFLVYLWVYPGTDGWQR, the amyloid nucleation score result was “inactive”.

TIAGHYYLWS displayed an amyloid nucleation score of -0.291 ± 0.78. Under TIALM stands 0.335 ± 0.33.

Substance TICSSTFNFCSCFVTYLRMG showed an amyloid nucleation score of 4.83 ± 0.072. The value for TIFAWAKHGQSNTVSRLGGF was 0.118 ± 0.44; that for TIINLGILLYYVGFFSIDPG was 5.866 ± 0.052.
